These results are taken from patent US20190092852A1 (Genentech, published 2019).

The target of experiment [1] is T1, biotinylated cyno IL-33 (cynomolgus monkey, UniProt A0A2K5W3I1 112-269, biotin-labeled with EZ-LINK NHS-PEG4-Biotin).
T1 construct: also called biotin-cyIL-33
T1 sequence: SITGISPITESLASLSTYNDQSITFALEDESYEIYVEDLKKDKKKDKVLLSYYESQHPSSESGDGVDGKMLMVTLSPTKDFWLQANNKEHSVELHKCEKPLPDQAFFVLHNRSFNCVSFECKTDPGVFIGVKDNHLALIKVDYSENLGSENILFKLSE
In words: competitive ELISA, biotin-cyIL-33 to coated hST2-Fc. On the procedure:
(§1) The ability of the anti-IL-33 antibody 10C12.38.H6.87Y.58I IgG4 and each anti-IL-33 antibody listed in Table 5 (RG1-RG20) to block either human IL-33 or cyno IL-33 binding to human ST2 receptor was tested in a competitive binding ELISA. Briefly, 1 μg/ml of recombinant human ST2-Fc chimera protein prepared in coating buffer (50 mM sodium carbonate, pH 9.6) was coated on a 384-well MAXISORP® plate (Nalgene Nunc International; Rochester, N.Y.) and incubated overnight at 4° C. On the next day, non-specific binding was blocked with PBS containing 0.5% (w/v) solution of bovine serum albumin (BSA). Fixed concentrations of biotinylated human or cyno IL-33 prepared in assay buffer (25 mM PBS, pH 7.2, 0.1% BSA, 0.05% TWEEN®-20) were mixed with an equal volume of serially-diluted anti-IL-33 antibodies or assay buffer alone and incubated for 1 h at room temperature. The final assay concentrations of biotinylated human IL-33 or cyno IL-33 were 20 pM and 45 pM, respectively, and the final assay concentration of each antibody ranged from 0-300 nM. The pre-mixed solutions were added to the ST2-Fc coated plate and incubated for 1 h at room temperature. The binding of biotinylated IL-33 to coated ST2-Fc was detected by the sequential addition of Streptavidin Poly-HRP80 (Fitzgerald; Buckinghamshire, UK) and 3,3′,5,5′-tetramethyl benzidine (TMB) Microwell Peroxidase Substrate System (KPL; Gaithersburg, Md.). The absorbance (450 nm) was recorded using a […] ASCENT® plate reader (Thermo Scientific; Rockford, Ill.). The binding activity (%) of biotin-IL-33 to ST2 in the presence of anti-IL-33 was plotted as a function of antibody concentration. The data generated were fitted to a four-parameter equation to determine IC₅₀ values for each antibody (FIGS. 25A and 25B) using Prism software (Graphpad Software; La Jolla, Calif.). The maximum blocking (%) of each antibody was calculated as the ratio of the reduction in signal measured in the presence of antibody relative to the difference between the signal with IL-33 alone and background measurements.
A general note: ELISA stands for enzyme-linked immunosorbent assay.

Experiment [2] concerns the target T2, cyno IL-33 N-His (cynomolgus monkey).
T2 chain: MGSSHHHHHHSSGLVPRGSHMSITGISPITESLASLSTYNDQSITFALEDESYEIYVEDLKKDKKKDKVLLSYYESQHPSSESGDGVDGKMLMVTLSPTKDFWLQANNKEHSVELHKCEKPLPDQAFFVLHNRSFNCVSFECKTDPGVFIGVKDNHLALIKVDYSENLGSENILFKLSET
In words: SPR Biacore T200, 25 C. The procedure:
(§2) The binding kinetics of the anti-IL-33 antibody 10C12.38.H6.87Y.58I IgG4 and each anti-IL-33 antibody listed in Table 5 (RG1-RG20) to IL-33 were measured using surface plasmon resonance (SPR) on a BIACORE® T200 instrument (GE Healthcare). Anti-human Fc or anti-murine Fc (GE Healthcare, #BR-1008-39 or BR-1008-38, respectively) was immobilized on a CM5 sensor chip via amine-based coupling according to the manufacturer's protocol. Surfaces were used to capture monoclonal human IgG4 and monoclonal murine IgGs for kinetic studies. Antibody binding was measured to human IL-33 (R&D systems, #3625-IL-010/CF) and cyno IL-33 N-His (SEQ ID NO: 317) (Genentech, Inc.). A three-fold concentration series of cytokine with a range of 3.7 to 100 nM was used for the experiments. Sensograms for binding of IL-33 were recorded using an injection time of 4 min with a flow rate of 30 μl/minute with a running buffer of 0.01 M N-(2-Acetamido)iminodiacetic acid (ADA) pH 7.4, 0.15 M NaCl, 3 mM EDTA, and 0.05% TWEEN®-20. After injection, disassociation of the ligand from the antibody was monitored for 10 min in running buffer. The surface was regenerated in between cycles with an injection of 3 M magnesium chloride or Glycine-HCl pH 1.7. All binding experiments were performed at a temperature of 25′C and 37° C. After subtraction of a blank which contained running buffer only, sensograms observed for IL-33 binding to anti-IL-33 antibodies were analyzed using a 1:1 Langmuir binding model with software supplied by the manufacturer to calculate the kinetics and binding constants, including the dissociation constant (KD). Dissociative half-lives (t_{1/2}) were calculated from the kinetic rate constants. KD (M)=koff/kₒₙ and t_{1/2} (min)=ln(2)/(60*koff). […] In Tables 6-9, *IC indicates the result is inconclusive due to weak capture of antibody was observed, leading to poor binding data.

Experiment [3] deals with T3, cynomolgus monkey N-terminal 6-His-tagged and C-terminal Avi-tagged IL-33 (S112-T270) (cynomolgus monkey).
T3 chain: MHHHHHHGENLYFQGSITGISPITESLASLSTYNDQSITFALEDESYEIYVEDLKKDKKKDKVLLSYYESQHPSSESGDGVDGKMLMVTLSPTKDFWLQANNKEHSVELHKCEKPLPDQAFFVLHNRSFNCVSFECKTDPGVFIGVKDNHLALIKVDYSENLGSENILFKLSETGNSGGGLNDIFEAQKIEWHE
In words: cell-based or functional assay.

The target of experiment [4] is T4, biotinylated human IL-33 (human, UniProt O95760 112-270, biotin-labeled with EZ-LINK NHS-PEG4-Biotin).
T4 construct: also called biotin-huIL-33
T4 sequence (looked up): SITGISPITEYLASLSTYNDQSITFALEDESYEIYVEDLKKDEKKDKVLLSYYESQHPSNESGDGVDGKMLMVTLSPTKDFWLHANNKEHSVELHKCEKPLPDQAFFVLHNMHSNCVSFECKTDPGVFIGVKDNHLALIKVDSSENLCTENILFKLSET
In words: competitive ELISA, biotin-huIL-33 to coated hST2-Fc. The procedure: as §1

For experiment [5], the target named is T5, human IL-33 (R&D Systems, #3625-IL-010/CF) (human, UniProt O95760 112-270).
T5 sequence (looked up): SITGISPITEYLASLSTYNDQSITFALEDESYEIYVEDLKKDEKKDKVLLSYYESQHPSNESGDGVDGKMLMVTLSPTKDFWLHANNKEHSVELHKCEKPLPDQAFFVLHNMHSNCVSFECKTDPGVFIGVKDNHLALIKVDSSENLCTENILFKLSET
In words: cell-based or functional assay.

Experiment [6] concerns the target T5, human IL-33 (R&D Systems, …). In words: cell-based or functional assay. This is another data set of the same source.
Experiment [7] shares this target. In words: cell-based or functional assay. The source holds these as a separate data set.
For experiment [8] the target is unchanged. In words: SPR Biacore T200, 37 C. The procedure: as §2
(In general: Surface plasmon resonance follows binding to a sensor surface in real time, without labels.)

Experiment [9] has as its target T2, cyno IL-33 N-His. In words: SPR Biacore T200, 37 C. On the procedure:
as §2

In experiment [10] the target is T5, human IL-33 (R&D Systems, …). In words: SPR Biacore T200, 25 C. The procedure: as §2
Experiment [11] has the same target. In words: cell-based or functional assay. The source holds these as a separate data set.

B1: H1M9565N (antibody, V domains shown)
VH: QVTLKESGPVLVKPTESLTLTCSVSGFSLSNVRMGVSWIRQSPGKALEWLAHIFSNDEKSYTTSLKTRLTISKDTSRSQVVLTMTDMDPGDTATYYCARIRNLAFNYWGQGTLVTVSS
VL: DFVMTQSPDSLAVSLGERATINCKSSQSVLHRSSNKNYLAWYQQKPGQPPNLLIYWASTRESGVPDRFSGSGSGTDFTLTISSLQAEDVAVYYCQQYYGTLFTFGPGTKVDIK
Consider B1, for which, in experiment [1], the half-inhibitory concentration (IC50) (in general, the point on the concentration scale where inhibition reaches its midpoint) was determined as 19 nM and the “Maximum Blocking” value worked out at 85%. Also, in [2], the Kd (commonly the constant that tells how readily two partners part at equilibrium) came to 2.98 nM; the koff – broadly, a measure of how fast the partners let go of each other – is 0.000606 s⁻¹; the kon – broadly, a measure of how fast the partners come together – was 203000 M⁻¹ s⁻¹; the t1/2 was 19 min. In addition, in [3], the “HEK-BLUE SEAP reporter IC50” value was determined as 6.1 nM.

B2: H1M9559N (antibody, IgG1, V domains shown)
VH: QVQLVESGGGVVQPGRSLRLSCAASGFTFSSYGMHWVRQAPGKGLEWVAVIWYDGRNKYYTDSVKGRFTISRDNSKNTLYLQMDSLRAEDTAVYYCARERYISSYYGGFDPWGQGALVTVSS
VL: DIQMTQSPSSVSASVGDRVTITCRASQGISSWLAWYQQKPGKAPKVLIYAASSLQSGVPSRFSGSGSGTDFTLTISSLQPEDFATYYCQQANSFPFTFGPGTKLDIK
notes: also called RG1
For B2, in experiment [4], the IC50 was found to be 4.1 nM and the “Maximum Blocking” value came out at 75%. Besides, the “IC50; SEAP reporter (OD 620), HEK-BLUE IL-33/IL-1beta cells, 10 pM hIL-33” value (shortened to “IC50; SEAP reporter”) in experiment [5] worked out at 9.5e-09 M. In addition, in [6], the “Ph-p38 MFI at 2 nM Ab (500 pM human IL-33, primary basophils)” value (“Ph-p38 MFI at 2 nM Ab” for short) was 100 MFI. Moreover, the “Ph-p38 MFI at 0.4 nM Ab (500 pM human IL-33, primary basophils)” value (from here on “Ph-p38 MFI at 0.4 nM Ab”) in [7] worked out at 90 MFI. Moreover, in [8], the dissociation constant Kd is 2.37 nM, the koff is 0.000888 s⁻¹, the kon was 374000 M⁻¹ s⁻¹ and the t1/2 came to 13 min. In experiment [9], this molecule registered a Kd of 8.33 nM, a koff of 0.00193 s⁻¹, a kon of 232000 M⁻¹ s⁻¹ and a t1/2 of 6 min. For the same molecule, in [10], the affinity, expressed as Kd, was 0.811 nM; the koff was 0.000184 s⁻¹; the kon amounted to 226000 M⁻¹ s⁻¹; the t1/2 was determined as 63 min. Besides, in experiment [2], the Kd stood at 3.76 nM, the koff is 0.000458 s⁻¹, the kon was 122000 M⁻¹ s⁻¹ and the t1/2 turned out to be 25 min.

B3: H4H9633P (antibody, IgG4, V domains shown)
VH: EVQLVESGGGLVQPGGSLRLSCAASGFTFSSYVMSWVRQAPGKGLEWVSSISGNGGSTNYADSVKGRFTISRDNSKNTLFLEMNSLRAEDTAVYYCAKSLGTTTTFLGFDYWGQGTLVTVSS
VL: DIQMTQSPSSVSASVGDRVTITCRASQGISSWLAWYQQKPGKAPKLLIYAASSLQSGVPSRFSGSGSGTYFTLTISSLQPEDFATYYCQQANSFPLTFGGGTKVEIK
notes: also called RG5
In the case of B3, in experiment [4], the IC50 came out at 1.1 nM and the “Maximum Blocking” value was 68%. For the same molecule, the “IC50; SEAP reporter” value in experiment [5] came out at 3.7e-09 M. The “IC50; IFN-gamma ELISA, primary human NK cells, 260 pM hIL-33 + IL-12” value in [11] came to 4.1e-08 M. Besides, in experiment [6], the “Ph-p38 MFI at 2 nM Ab” value was 142 MFI. Further, in experiment [7], the “Ph-p38 MFI at 0.4 nM Ab” value is 149 MFI. In [8], this molecule yielded a Kd of 0.726 nM, a koff of 0.000845 s⁻¹, a kon of 1.16e+06 M⁻¹ s⁻¹ and a t1/2 of 14 min. Moreover, in [9], the Kd is 42.7 nM, the koff came out at 0.0113 s⁻¹, the kon worked out at 265000 M⁻¹ s⁻¹ and the t1/2 stood at 1 min. Further, in experiment [10], the Kd was found to be 0.941 nM, the koff turned out to be 0.000462 s⁻¹, the kon was 491000 M⁻¹ s⁻¹ and the t1/2 came out at 25 min. In experiment [2], this molecule came in with a Kd of 14.9 nM, a koff of 0.00337 s⁻¹, a kon of 227000 M⁻¹ s⁻¹ and a t1/2 of 3 min.

B4: H1M9566N (antibody, IgG1, V domains shown)
VH: EVQLLESGGDLVQPGGSLRLSCAASGFTFSSYAMSWVRQAPGKGLEWVSVISGSGSSTDYADSVKGRFTISRDNSRDTLHLQMNSLRAEDTAVYYCAKTFYYFYGLDVWGQGTTVTVSS
VL: DIQMTQSPSSLSASLRDRVTITCRASQGISNYLAWYQQKPGKVPKVLIYAASTLQSGVPSRFSGSGSGTVFTLTISSLQTEDVATYYCQKYSSAPFTFGPGTKVDIK
notes: also called RG2
Turning to B4, in [4], the IC50 stood at 0.099 nM and the “Maximum Blocking” value came out at 27%. Moreover, the “IC50; SEAP reporter” value in [5] was 1.7e-08 M. Besides, the “Ph-p38 MFI at 2 nM Ab” value in experiment [6] is 146 MFI. Besides, the “Ph-p38 MFI at 0.4 nM Ab” value in [7] stood at 119 MFI. Besides, in experiment [8], the Kd is 4.04 nM, the dissociation rate constant (koff) amounted to 0.000522 s⁻¹, the kon amounted to 129000 M⁻¹ s⁻¹ and the t1/2 was 22 min. In experiment [9], this molecule displayed a Kd of 2.54 nM, a koff of 0.000469 s⁻¹, a kon of 185000 M⁻¹ s⁻¹ and a t1/2 of 25 min. In experiment [10], this molecule gave a Kd of 0.798 nM, a koff of 7.73e-05 s⁻¹, a kon of 96900 M⁻¹ s⁻¹ and a t1/2 of 149 min. In [2], this molecule registered a Kd of 0.656 nM, a koff of 7.66e-05 s⁻¹, a kon of 117000 M⁻¹ s⁻¹ and a t1/2 of 151 min.
